{
  "source": "paper PMC10196870",
  "about": "“Structural insights into the substrate recognition of serine palmitoyltransferase from Sphingobacterium multivorum” (The Journal of Biological Chemistry, 2023)",
  "proteins": {"B1": {"name": "Sphingobacterium multivorum serine palmitoyltransferase (enzyme, UniProt A7BFV6 1-399, looked up)", "chain": "MSKGKLGEKISQFKIVEELKAKGLYAYFRPIQSKQDTEVKIDGRRVLMFGSNSYLGLTTDTRIIKAAQDALEKYGTGCAGSRFLNGTLDIHVELEEKLSAYVGKEAAILFSTGFQSNLGPLSCLMGRNDYILLDERDHASIIDGSRLSFSKVIKYGHNNMEDLRAKLSRLPEDSAKLICTDGIFSMEGDIVNLPELTSIANEFDAAVMVDDAHSLGVIGHKGAGTASHFGLNDDVDLIMGTFSKSLASLGGFVAGDADVIDFLKHNARSVMFSASMTPASVASTLKALEIIQNEPEHIEKLWKNTDYAKAQLLDHGFDLGATESPILPIFIRSNEKTFWVTKMLQDDGVFVNPVVSPAVPAEESLIRFSLMATHTYDQIDEAIEKMVKVFKQAEVETLI", "modifications": "PLP-Lys244 internal aldimine (ligand-free form); in the amino acid complexes PLP forms an external aldimine with the amino acid", "notes": "serine palmitoyltransferase of Sphingobacterium multivorum, full length, 398 amino acid residues; the model holds Ser2 to Val395; no tag is mentioned; also called S. multivorum SPT; SPT; source: E. coli BL21 (DE3) pLysS, purified (DEAE, Butyl, second DEAE column chromatography, desalting)"}},
  "molecular_target": "the molecule itself",
  "experiment": "crystal structure; crystals grown in Tris buffer, soaked in Tricine-buffered Tris-free solution without or with amino acids (L-Ser, L-Hse, Gly, L-Ala, L-Thr); space group P4(1)2(1)2, one molecule per asymmetric unit, dimer generated by crystallographic symmetry; 100 K",
  "data": [
    {"protein": "B1", "values": [
      {"measurement": "binding result", "value": "binds"}
    ]}
  ]
}
